Consider 20 molecules from patent publication US20240018502A1.

The chains are these.
B1: ins97aY/F97G/T98V/C122S/Q175M/Q192S/D217V (enzyme)
chain: VVGGTDADEGEWPWQVSLHALGQGHICGASLISPNWLVSAAHCYIDDRGFRYSDPTQWTAFLGLHDQSQRSAPGVQERRLKRIISHPFFNDGYVFDYDIALLELEKPAEYSSMVRPISLPDASHVFPAGKAIWVTGWGHTQYGGTGALILQKGEIRVINQTTCENLLPQMITPRMMCVGFLSGGVDSCSGDSGGPLSSVEADGRIFQAGVVSWGVGCAQRNKPGVYTRLPLFRDWIKENTGV
B2: Q38H/I41S/D60bY/D96Y/ins97aV/F97D/T98P/F99L/L106M/C122S/I136M/Q192G/Q209L/D217T (enzyme)
chain: VVGGTDADEGEWPWQVSLHALGHGHSCGASLISPNWLVSAAHCYIDYRGFRYSDPTQWTAFLGLHDQSQRSAPGVQERRLKRIISHPFFNYDVPLDYDIALMELEKPAEYSSMVRPISLPDASHVFPAGKAMWVTGWGHTQYGGTGALILQKGEIRVINQTTCENLLPQQITPRMMCVGFLSGGVDSCGGDSGGPLSSVEADGRIFLAGVVSWGTGCAQRNKPGVYTRLPLFRDWIKENTGV
B3: Q38H/I41S/D60bT/F60eS/Y60gW/D96F/F97D/ins97aE/T98S/F99L/C122S/G151H/Q175L/Q192A (enzyme)
chain: VVGGTDADEGEWPWQVSLHALGHGHSCGASLISPNWLVSAAHCYIDTRGSRWSDPTQWTAFLGLHDQSQRSAPGVQERRLKRIISHPFFNFDESLDYDIALLELEKPAEYSSMVRPISLPDASHVFPAGKAIWVTGWGHTQYGGTHALILQKGEIRVINQTTCENLLPQLITPRMMCVGFLSGGVDSCAGDSGGPLSSVEADGRIFQAGVVSWGDGCAQRNKPGVYTRLPLFRDWIKENTGV
B4: Q38H/I41A/D60bV/F60eR/Y60gW/ins97aE/F97T/T98G/F99L/C122S/Q175L/Q192D (enzyme)
chain: VVGGTDADEGEWPWQVSLHALGHGHACGASLISPNWLVSAAHCYIDVRGRRWSDPTQWTAFLGLHDQSQRSAPGVQERRLKRIISHPFFNDTEGLDYDIALLELEKPAEYSSMVRPISLPDASHVFPAGKAIWVTGWGHTQYGGTGALILQKGEIRVINQTTCENLLPQLITPRMMCVGFLSGGVDSCDGDSGGPLSSVEADGRIFQAGVVSWGDGCAQRNKPGVYTRLPLFRDWIKENTGV
B5: Q38H/I41S/D60bT/F60eS/Y60gW/D96K/F97G/ins97aA/T98P/F99L/C122S/G151H/Q175L/Q192D (enzyme)
chain: VVGGTDADEGEWPWQVSLHALGHGHSCGASLISPNWLVSAAHCYIDTRGSRWSDPTQWTAFLGLHDQSQRSAPGVQERRLKRIISHPFFNKGAPLDYDIALLELEKPAEYSSMVRPISLPDASHVFPAGKAIWVTGWGHTQYGGTHALILQKGEIRVINQTTCENLLPQLITPRMMCVGFLSGGVDSCDGDSGGPLSSVEADGRIFQAGVVSWGDGCAQRNKPGVYTRLPLFRDWIKENTGV
B6: Q38H/I41A/D60bV/F60eR/Y60gW/D96P/ins97aN/F97W/T98G/F99L/C122S/G151H/Q175L/Q192D (enzyme)
chain: VVGGTDADEGEWPWQVSLHALGHGHACGASLISPNWLVSAAHCYIDVRGRRWSDPTQWTAFLGLHDQSQRSAPGVQERRLKRIISHPFFNPWNGLDYDIALLELEKPAEYSSMVRPISLPDASHVFPAGKAIWVTGWGHTQYGGTHALILQKGEIRVINQTTCENLLPQLITPRMMCVGFLSGGVDSCDGDSGGPLSSVEADGRIFQAGVVSWGDGCAQRNKPGVYTRLPLFRDWIKENTGV
B7: Q38H/I41S/D60bT/F60eS/Y60gW/ins97aV/F97D/T98P/F99L/C122S/G151H/Q175L (enzyme)
chain: VVGGTDADEGEWPWQVSLHALGHGHSCGASLISPNWLVSAAHCYIDTRGSRWSDPTQWTAFLGLHDQSQRSAPGVQERRLKRIISHPFFNDDVPLDYDIALLELEKPAEYSSMVRPISLPDASHVFPAGKAIWVTGWGHTQYGGTHALILQKGEIRVINQTTCENLLPQLITPRMMCVGFLSGGVDSCQGDSGGPLSSVEADGRIFQAGVVSWGDGCAQRNKPGVYTRLPLFRDWIKENTGV
B8: Q38H/I41S/D60bT/F60eS/Y60gW/D96K/F97G/ins97aV/T98P/F99L/C122S/G151H/Q175L (enzyme)
chain: VVGGTDADEGEWPWQVSLHALGHGHSCGASLISPNWLVSAAHCYIDTRGSRWSDPTQWTAFLGLHDQSQRSAPGVQERRLKRIISHPFFNKGVPLDYDIALLELEKPAEYSSMVRPISLPDASHVFPAGKAIWVTGWGHTQYGGTHALILQKGEIRVINQTTCENLLPQLITPRMMCVGFLSGGVDSCQGDSGGPLSSVEADGRIFQAGVVSWGDGCAQRNKPGVYTRLPLFRDWIKENTGV
B9: Q38Y/I41A/D60bL/F60eQ/ins97aV/F97D/T98P/F99L/C122S/G151N/Q175M/Q192A (enzyme)
chain: VVGGTDADEGEWPWQVSLHALGYGHACGASLISPNWLVSAAHCYIDLRGQRYSDPTQWTAFLGLHDQSQRSAPGVQERRLKRIISHPFFNDDVPLDYDIALLELEKPAEYSSMVRPISLPDASHVFPAGKAIWVTGWGHTQYGGTNALILQKGEIRVINQTTCENLLPQMITPRMMCVGFLSGGVDSCAGDSGGPLSSVEADGRIFQAGVVSWGDGCAQRNKPGVYTRLPLFRDWIKENTGV
B10: Q38H/I41A/D60bV/F60eA/Y60gW/F97T/ins97aE/T98G/F99L/C122S/Q175L/Q192V (enzyme)
chain: VVGGTDADEGEWPWQVSLHALGHGHACGASLISPNWLVSAAHCYIDVRGARWSDPTQWTAFLGLHDQSQRSAPGVQERRLKRIISHPFFNDTEGLDYDIALLELEKPAEYSSMVRPISLPDASHVFPAGKAIWVTGWGHTQYGGTGALILQKGEIRVINQTTCENLLPQLITPRMMCVGFLSGGVDSCVGDSGGPLSSVEADGRIFQAGVVSWGDGCAQRNKPGVYTRLPLFRDWIKENTGV
B11: Q38F/I41A/D60bT/F60eG/Y60gW/ins97aE/F97T/T98G/F99L/C122S/Q175L/Q192E (enzyme)
chain: VVGGTDADEGEWPWQVSLHALGFGHACGASLISPNWLVSAAHCYIDTRGGRWSDPTQWTAFLGLHDQSQRSAPGVQERRLKRIISHPFFNDTEGLDYDIALLELEKPAEYSSMVRPISLPDASHVFPAGKAIWVTGWGHTQYGGTGALILQKGEIRVINQTTCENLLPQLITPRMMCVGFLSGGVDSCEGDSGGPLSSVEADGRIFQAGVVSWGDGCAQRNKPGVYTRLPLFRDWIKENTGV
B12: Q38F/I41S/D60bF/F60eR/Y60gF/F97T/ins97aE/T98G/F99L/C122S/G151N/Q175L/Q192V (enzyme)
chain: VVGGTDADEGEWPWQVSLHALGFGHSCGASLISPNWLVSAAHCYIDFRGRRFSDPTQWTAFLGLHDQSQRSAPGVQERRLKRIISHPFFNDTEGLDYDIALLELEKPAEYSSMVRPISLPDASHVFPAGKAIWVTGWGHTQYGGTNALILQKGEIRVINQTTCENLLPQLITPRMMCVGFLSGGVDSCVGDSGGPLSSVEADGRIFQAGVVSWGDGCAQRNKPGVYTRLPLFRDWIKENTGV
B13: Q38H/I41A/D60bV/F60eR/Y60gW/D96I/ins97aN/F97Y/T98G/F99L/C122S/G151N/Q175L/Q192D (enzyme)
chain: VVGGTDADEGEWPWQVSLHALGHGHACGASLISPNWLVSAAHCYIDVRGRRWSDPTQWTAFLGLHDQSQRSAPGVQERRLKRIISHPFFNIYNGLDYDIALLELEKPAEYSSMVRPISLPDASHVFPAGKAIWVTGWGHTQYGGTNALILQKGEIRVINQTTCENLLPQLITPRMMCVGFLSGGVDSCDGDSGGPLSSVEADGRIFQAGVVSWGDGCAQRNKPGVYTRLPLFRDWIKENTGV
B14: Q38H/I41A/D60bT/F60eH/Y60gW/ins97aE/F97T/T98G/F99L/C122S/Q175L/Q192D (enzyme)
chain: VVGGTDADEGEWPWQVSLHALGHGHACGASLISPNWLVSAAHCYIDTRGHRWSDPTQWTAFLGLHDQSQRSAPGVQERRLKRIISHPFFNDTEGLDYDIALLELEKPAEYSSMVRPISLPDASHVFPAGKAIWVTGWGHTQYGGTGALILQKGEIRVINQTTCENLLPQLITPRMMCVGFLSGGVDSCDGDSGGPLSSVEADGRIFQAGVVSWGDGCAQRNKPGVYTRLPLFRDWIKENTGV
B15: Q38H/I41A/D60bV/F60eR/Y60gW/D96S/ins97aR/F97A/T98S/F99L/C122S/G151N/Q175L/Q192T (enzyme)
chain: VVGGTDADEGEWPWQVSLHALGHGHACGASLISPNWLVSAAHCYIDVRGRRWSDPTQWTAFLGLHDQSQRSAPGVQERRLKRIISHPFFNSARSLDYDIALLELEKPAEYSSMVRPISLPDASHVFPAGKAIWVTGWGHTQYGGTNALILQKGEIRVINQTTCENLLPQLITPRMMCVGFLSGGVDSCTGDSGGPLSSVEADGRIFQAGVVSWGDGCAQRNKPGVYTRLPLFRDWIKENTGV
B16: Q38H/I41A/D60bV/F60eT/Y60gW/ins97aE/F97T/T98G/F99L/C122S/Q175L/Q192E (enzyme)
chain: VVGGTDADEGEWPWQVSLHALGHGHACGASLISPNWLVSAAHCYIDVRGTRWSDPTQWTAFLGLHDQSQRSAPGVQERRLKRIISHPFFNDTEGLDYDIALLELEKPAEYSSMVRPISLPDASHVFPAGKAIWVTGWGHTQYGGTGALILQKGEIRVINQTTCENLLPQLITPRMMCVGFLSGGVDSCEGDSGGPLSSVEADGRIFQAGVVSWGDGCAQRNKPGVYTRLPLFRDWIKENTGV
B17: Q38H/I41A/D60bV/F60eR/Y60gW/D96P/ins97aN/F97W/T98G/F99L/C122S/G151N/Q175L/Q192E (enzyme)
chain: VVGGTDADEGEWPWQVSLHALGHGHACGASLISPNWLVSAAHCYIDVRGRRWSDPTQWTAFLGLHDQSQRSAPGVQERRLKRIISHPFFNPWNGLDYDIALLELEKPAEYSSMVRPISLPDASHVFPAGKAIWVTGWGHTQYGGTNALILQKGEIRVINQTTCENLLPQLITPRMMCVGFLSGGVDSCEGDSGGPLSSVEADGRIFQAGVVSWGDGCAQRNKPGVYTRLPLFRDWIKENTGV
B18: Q38H/I41S/D60bT/F60eS/Y60gW/D96L/ins97aG/F97D/T98N/F99L/C122S/G151H/Q175L/Q192E (enzyme)
chain: VVGGTDADEGEWPWQVSLHALGHGHSCGASLISPNWLVSAAHCYIDTRGSRWSDPTQWTAFLGLHDQSQRSAPGVQERRLKRIISHPFFNLDGNLDYDIALLELEKPAEYSSMVRPISLPDASHVFPAGKAIWVTGWGHTQYGGTHALILQKGEIRVINQTTCENLLPQLITPRMMCVGFLSGGVDSCEGDSGGPLSSVEADGRIFQAGVVSWGDGCAQRNKPGVYTRLPLFRDWIKENTGV
B19: Q38H/I41S/D60bF/F60eV/F97D/ins97aV/T98P/F99L/C122S/G151N/Q175L/Q192A (enzyme)
chain: VVGGTDADEGEWPWQVSLHALGHGHSCGASLISPNWLVSAAHCYIDFRGVRYSDPTQWTAFLGLHDQSQRSAPGVQERRLKRIISHPFFNDDVPLDYDIALLELEKPAEYSSMVRPISLPDASHVFPAGKAIWVTGWGHTQYGGTNALILQKGEIRVINQTTCENLLPQLITPRMMCVGFLSGGVDSCAGDSGGPLSSVEADGRIFQAGVVSWGDGCAQRNKPGVYTRLPLFRDWIKENTGV
B20: Q38H/I41A/D60bV/F60eR/Y60gW/D96I/ins97aN/F97Y/T98G/F99L/C122S/G151H/Q175L/Q192D (enzyme)
chain: VVGGTDADEGEWPWQVSLHALGHGHACGASLISPNWLVSAAHCYIDVRGRRWSDPTQWTAFLGLHDQSQRSAPGVQERRLKRIISHPFFNIYNGLDYDIALLELEKPAEYSSMVRPISLPDASHVFPAGKAIWVTGWGHTQYGGTHALILQKGEIRVINQTTCENLLPQLITPRMMCVGFLSGGVDSCDGDSGGPLSSVEADGRIFQAGVVSWGDGCAQRNKPGVYTRLPLFRDWIKENTGV

human complement protein C3 (human), sequence (P01024 23-667, chain 1 of 2): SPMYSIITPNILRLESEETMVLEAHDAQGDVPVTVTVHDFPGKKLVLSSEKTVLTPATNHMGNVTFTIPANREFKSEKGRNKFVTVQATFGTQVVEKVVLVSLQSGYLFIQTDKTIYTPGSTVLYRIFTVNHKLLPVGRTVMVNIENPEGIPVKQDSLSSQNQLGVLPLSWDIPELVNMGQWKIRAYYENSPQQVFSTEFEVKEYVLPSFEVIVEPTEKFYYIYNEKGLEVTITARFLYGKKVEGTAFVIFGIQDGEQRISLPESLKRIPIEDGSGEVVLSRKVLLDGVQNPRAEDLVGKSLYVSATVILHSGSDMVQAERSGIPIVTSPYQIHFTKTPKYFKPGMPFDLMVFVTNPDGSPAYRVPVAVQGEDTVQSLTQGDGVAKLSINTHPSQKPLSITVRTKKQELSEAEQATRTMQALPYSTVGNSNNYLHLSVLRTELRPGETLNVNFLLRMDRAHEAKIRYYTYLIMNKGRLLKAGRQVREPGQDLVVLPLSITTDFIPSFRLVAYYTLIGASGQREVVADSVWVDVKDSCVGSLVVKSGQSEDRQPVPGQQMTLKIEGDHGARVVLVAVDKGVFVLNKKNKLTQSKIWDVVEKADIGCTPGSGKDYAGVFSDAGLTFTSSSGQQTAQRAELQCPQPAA
human complement protein C3 (human), sequence (P01024 672-1663, chain 2 of 2): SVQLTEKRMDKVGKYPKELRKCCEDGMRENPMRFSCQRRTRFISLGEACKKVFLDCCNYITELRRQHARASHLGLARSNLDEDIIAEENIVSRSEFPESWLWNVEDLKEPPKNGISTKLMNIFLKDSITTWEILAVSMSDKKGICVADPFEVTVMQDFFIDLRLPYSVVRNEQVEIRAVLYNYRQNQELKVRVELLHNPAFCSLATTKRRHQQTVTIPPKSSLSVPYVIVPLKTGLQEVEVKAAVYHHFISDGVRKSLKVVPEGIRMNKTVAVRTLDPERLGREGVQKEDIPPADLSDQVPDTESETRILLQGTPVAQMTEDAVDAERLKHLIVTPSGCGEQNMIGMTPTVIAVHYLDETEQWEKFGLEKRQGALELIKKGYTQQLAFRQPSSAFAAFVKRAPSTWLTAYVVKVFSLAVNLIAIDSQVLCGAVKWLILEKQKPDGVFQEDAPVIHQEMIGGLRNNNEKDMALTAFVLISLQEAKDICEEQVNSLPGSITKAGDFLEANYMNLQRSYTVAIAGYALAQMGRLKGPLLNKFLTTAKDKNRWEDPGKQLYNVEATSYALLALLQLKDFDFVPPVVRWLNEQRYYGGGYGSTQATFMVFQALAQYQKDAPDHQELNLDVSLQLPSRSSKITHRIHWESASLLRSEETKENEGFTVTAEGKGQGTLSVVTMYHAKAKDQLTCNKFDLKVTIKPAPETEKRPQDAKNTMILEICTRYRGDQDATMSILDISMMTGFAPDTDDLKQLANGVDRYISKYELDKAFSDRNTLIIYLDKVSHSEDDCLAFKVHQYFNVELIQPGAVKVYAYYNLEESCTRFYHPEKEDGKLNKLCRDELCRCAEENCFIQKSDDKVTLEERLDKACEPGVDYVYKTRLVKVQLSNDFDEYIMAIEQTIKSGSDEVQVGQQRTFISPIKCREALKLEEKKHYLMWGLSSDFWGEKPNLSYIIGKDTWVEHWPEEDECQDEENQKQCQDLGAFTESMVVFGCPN

This test has as its target human complement protein C3 (human) (UniProt P01024). Description: cell-based or functional assay.
Molecule B1 showed an EC50 (nM), cleavage of purified hC3 in vitro of 2.42 nM.
B2 registered an EC50 (nM), cleavage of purified hC3 in vitro of 1.97 nM.
For the molecule B3, the EC50 (nM), cleavage of purified hC3 in vitro was found to be 1.17 nM.
For B4, the EC50 (nM), cleavage of purified hC3 in vitro turned out to be 2.37 nM.
Regarding B5, the EC50 (nM), cleavage of purified hC3 in vitro came out at 1.43 nM.
Regarding B6, the EC50 (nM), cleavage of purified hC3 in vitro came to 1.83 nM.
Then B7, with 1.31 nM.
B8 showed an EC50 (nM), cleavage of purified hC3 in vitro of 1.45 nM.
As for B9, the figure is 1.53 nM.
Take B10: the EC50 (nM), cleavage of purified hC3 in vitro stood at 1.57 nM.
Then B11, with 1.25 nM; and B12, with 1.96 nM; and B13, with 2.23 nM.
As for B14, the figure is 2.28 nM.
In turn, B15 showed an EC50 (nM), cleavage of purified hC3 in vitro of 2.07 nM.
As for B16, the figure is 1.39 nM.
As for B17, the figure is 1.51 nM; as for B18, 1.59 nM; as for B19, 1.57 nM.
B20: the EC50 (nM), cleavage of purified hC3 in vitro came out at 1.57 nM.
